Values joined by “and” are separate entries in the source; they are usually repeats but may differ in a detail not shown here. Equal values may be shown once. Bridges are numbered along the chain shown (N, C = ends). Where no end group is shown, it is not given here.
T1: ferret MCH-2R (ferret, UniProt Q969V1 1-340 (human entry))
T1 chain: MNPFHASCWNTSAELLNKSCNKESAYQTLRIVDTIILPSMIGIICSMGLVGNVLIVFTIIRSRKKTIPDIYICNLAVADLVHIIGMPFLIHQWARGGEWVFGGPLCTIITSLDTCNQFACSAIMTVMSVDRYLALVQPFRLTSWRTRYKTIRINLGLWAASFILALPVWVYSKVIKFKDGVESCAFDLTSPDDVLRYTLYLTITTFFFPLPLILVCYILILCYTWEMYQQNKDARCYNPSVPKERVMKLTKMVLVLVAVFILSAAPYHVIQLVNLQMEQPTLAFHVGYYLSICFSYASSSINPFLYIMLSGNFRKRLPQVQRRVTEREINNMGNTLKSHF

B1: Melanin-concentrating hormone (MCH) (peptide, UniProt P20382 147-165, looked up)
peptide: DFDMLRCMLGRVYRPCWQV
modifications: disulfide 7-16 (inferred)
notes: mature; also called cold MCH; MCH unlabeled peptide

Columns and labels:
[1] = target: rhesus monkey MCH-2R (melanin-concentrating hormone type 2 receptor) (rhesus monkey) (UniProt Q8MJ88); test: radioligand binding to HEK293T cells expressing rhesus MCH-2R in the presence of 1 uM cold [Phe13, Tyr19]-MCH
[2] = target: rhesus monkey MCH-2R (melanin-concentrating hormone type 2 receptor) (rhesus monkey) (UniProt Q8MJ88); test: radioligand binding to HEK293T cells expressing rhesus MCH-2R, cell-bound radioactivity
[3] = target: T2, human MCH-2R (human, UniProt Q969V1 1-340); test: cell-based or functional assay
[4] = target: T1, ferret MCH-2R; test: cell-based or functional assay
[5] = target: T2, human MCH-2R; test: radioligand competition binding on membranes of COS-7 cells transfected with human MCH-2R; radioligand not named
Description: (§1) (Strader, et al., 1987. Proc. Natl. Acad. Sci. USA 84, 4384-4388). Cells were harvested after 60-72 hours. Membranes were prepared from transient and stable transfectants by hypotonic lysis, frozen in liquid nitrogen, and stored at −80° C. (MacNeil, et al., 1994. Biochem. Biophys. Res. Commun. 198, 328-334.)
(§2) A binding assay was set up in 96 well plates. Total volume per binding assay point was 200 μL. […] Dose response curves were from 10 μM in 5 fold or 3-fold dilution series for 11 points. The mixture was shaken for 5 minutes on a platform shaker, and incubated at room temperature for 1 hour. Filter plates were presoaked in 1% PEI. The binding reaction was harvested onto filters using Packard Filtermate harvester (Meriden, Conn.). The filters were then washed in 50 mM Tris pH 7.4, 10 mM MgCl₂, 2 mM EDTA, 0.04% Tween 20, 6-8 times per plate. The plates were dried for 20 minutes at 55° C. or overnight at room temperature. 30 μL microscintillant was added per well and counted for 1.5-3 minutes in inverted format on Packard TopCount.

[6] = target: T3, rhesus monkey MCH-2R (melanin-concentrating hormone type 2 receptor) (rhesus monkey, UniProt Q8MJ88 1-340); test: cell-based or functional assay
[7] = target: T1, ferret MCH-2R; test: radioligand competition binding on membranes of COS-7 cells transfected with ferret MCH-2R; radioligand not named
Description: as §1, §2

[8] = target: T3, rhesus monkey MCH-2R …; test: displacement of 100 pM [125I]-[Phe13, Tyr19]-MCH from HEK293T cells expressing rhesus MCH-2R, filtration
Description: The remaining radio activity on the filter was quantitated using a TopCount HTS (Packard instrument) with a Microscint 0 scintillation cocktail (Packard instrument). […] Data were analyzed using GraphPad Prism Version 3.0.

Sequence of rhesus monkey MCH-2R (melanin-concentrating hormone type 2 receptor) (rhesus monkey) (Q8MJ88 whole entry): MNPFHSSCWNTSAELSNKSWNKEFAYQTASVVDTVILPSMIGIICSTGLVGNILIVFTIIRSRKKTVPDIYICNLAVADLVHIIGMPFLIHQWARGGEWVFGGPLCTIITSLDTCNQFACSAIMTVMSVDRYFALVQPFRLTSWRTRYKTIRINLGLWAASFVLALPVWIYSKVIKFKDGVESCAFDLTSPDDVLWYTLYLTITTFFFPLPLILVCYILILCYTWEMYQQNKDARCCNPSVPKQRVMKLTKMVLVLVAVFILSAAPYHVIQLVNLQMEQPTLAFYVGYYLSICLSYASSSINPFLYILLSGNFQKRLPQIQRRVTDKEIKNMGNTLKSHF
T3 sequence (Q8MJ88 whole entry): as above
T2 sequence (Q969V1 whole entry): as the sequence (Q8MJ88 whole entry) above, with S6A, S16L, I84V, S143R, V163I, I170V, A258V, V324A, D326E, K330N counted along it

Molecule	Nonspecific binding (cpm) [1]	Total binding (cpm) [2]	Function (EC50, nM), aequorin bioluminescence assay [3] [nM]	Function (EC50, nM), aequorin bioluminescence assay [4] [nM]	IC50 [5] [nM]	increase in intracellular calcium levels (fura-2), EC50 [6] [nM]	IC50 [7] [nM]	IC50 [8] [nM]
[^125I]-[Phe^13, Tyr^19]-MCH (from UniProt P20382 147-165) (peptide)	598 cpm and 567 cpm and 717 cpm	18000 cpm (2×) and 18700 cpm	–	–	–	–	–	–
B1	–	–	43	69	10	24	55	–
DFDMLRCMLGRVFRPCWQY (ends and bridges not checked; cysteine pairing not given here) [[Phe^13, Tyr^19]-MCH]	–	–	–	–	–	49	–	3.8

— patent publication US20040132045A1 (MERCK, published 2004)
